Tests used:
[1] = target: T1, native human coagulation factor IX (human, UniProt P00740 47-461); test: displacement of native factor IX from immobilised CA11143 (NANEX column) by 1 mg MegaBody CA16383; A280, SDS-PAGE and western blot [D00046 FIG. 42B; D00047 FIG. 42C]
T1 construct: Native protein captured from plasma; also called FIX

GFP protein [2] = target: T2, GFP protein (Aequorea victoria (Water jellyfish) …, UniProt P42212 1-238 = GFP); test: BLI
T2 construct: Purified GFP used as BLI analyte, in crystals and in NANEX; also called Green fluorescent protein

[3] = target: T3, CA16607 eGFP-tagged human recombinant glucocorticoid receptor (eGFP-6His-TEV-GR) (human); test: NANEX column: HEK293T lysate with GFP-GR on immobilised CA15816; A280/A488, SDS-PAGE, western blot [D00049 FIG. 44B]
T3 construct: Expressed in HEK293T cells, captured from the lysate; also called GFP-GR; eGFP-GR

GFP protein [4] = target: T2, GFP protein; test: BLI (OctetRed), biotinylated Nb on streptavidin sensor, GFP as analyte
[5] = target: T4, CA16976 eGFP-tagged human recombinant androgen receptor (eGFP-6His-TEV-ARb) (human); test: NANEX column: HEK293T lysate with GFP-ARb on immobilised CA15816; A280/A488
T4 construct: Expressed in HEK293T cells, captured from the lysate; also called GFP-ARb; eGFP-ARb

[6] = target: T1, native human coagulation factor IX; test: NANEX column: 30 mL human plasma recirculated over immobilised CA11143; A280, SDS-PAGE and western blot [D00046 FIG. 42B; D00047 FIG. 42C]
[7] = target: EPEA-tagged GFP (GFP-EPEA) protein; test: BLI; analyte not stated
[8] = target: T1, native human coagulation factor IX; test: NANEX column: 30 mL human recovered plasma recirculated over immobilised MegaBody CA16388; A280, SDS-PAGE and western blot [D00048 FIG. 43B; D00048 FIG. 43C]

T1 sequence (P00740 47-461 limits assumed): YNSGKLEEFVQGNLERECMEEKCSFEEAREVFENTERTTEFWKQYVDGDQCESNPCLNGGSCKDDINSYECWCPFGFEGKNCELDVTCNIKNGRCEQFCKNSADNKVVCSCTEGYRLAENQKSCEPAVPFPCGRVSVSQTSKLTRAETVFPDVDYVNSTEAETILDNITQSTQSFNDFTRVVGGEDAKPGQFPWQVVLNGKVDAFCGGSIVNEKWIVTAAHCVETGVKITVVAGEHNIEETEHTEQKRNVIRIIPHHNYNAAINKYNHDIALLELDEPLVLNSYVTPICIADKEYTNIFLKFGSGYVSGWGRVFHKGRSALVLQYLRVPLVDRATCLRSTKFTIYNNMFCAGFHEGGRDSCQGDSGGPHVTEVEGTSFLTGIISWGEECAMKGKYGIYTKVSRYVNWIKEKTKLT
T4 sequence (chain, as listed by the source limits assumed): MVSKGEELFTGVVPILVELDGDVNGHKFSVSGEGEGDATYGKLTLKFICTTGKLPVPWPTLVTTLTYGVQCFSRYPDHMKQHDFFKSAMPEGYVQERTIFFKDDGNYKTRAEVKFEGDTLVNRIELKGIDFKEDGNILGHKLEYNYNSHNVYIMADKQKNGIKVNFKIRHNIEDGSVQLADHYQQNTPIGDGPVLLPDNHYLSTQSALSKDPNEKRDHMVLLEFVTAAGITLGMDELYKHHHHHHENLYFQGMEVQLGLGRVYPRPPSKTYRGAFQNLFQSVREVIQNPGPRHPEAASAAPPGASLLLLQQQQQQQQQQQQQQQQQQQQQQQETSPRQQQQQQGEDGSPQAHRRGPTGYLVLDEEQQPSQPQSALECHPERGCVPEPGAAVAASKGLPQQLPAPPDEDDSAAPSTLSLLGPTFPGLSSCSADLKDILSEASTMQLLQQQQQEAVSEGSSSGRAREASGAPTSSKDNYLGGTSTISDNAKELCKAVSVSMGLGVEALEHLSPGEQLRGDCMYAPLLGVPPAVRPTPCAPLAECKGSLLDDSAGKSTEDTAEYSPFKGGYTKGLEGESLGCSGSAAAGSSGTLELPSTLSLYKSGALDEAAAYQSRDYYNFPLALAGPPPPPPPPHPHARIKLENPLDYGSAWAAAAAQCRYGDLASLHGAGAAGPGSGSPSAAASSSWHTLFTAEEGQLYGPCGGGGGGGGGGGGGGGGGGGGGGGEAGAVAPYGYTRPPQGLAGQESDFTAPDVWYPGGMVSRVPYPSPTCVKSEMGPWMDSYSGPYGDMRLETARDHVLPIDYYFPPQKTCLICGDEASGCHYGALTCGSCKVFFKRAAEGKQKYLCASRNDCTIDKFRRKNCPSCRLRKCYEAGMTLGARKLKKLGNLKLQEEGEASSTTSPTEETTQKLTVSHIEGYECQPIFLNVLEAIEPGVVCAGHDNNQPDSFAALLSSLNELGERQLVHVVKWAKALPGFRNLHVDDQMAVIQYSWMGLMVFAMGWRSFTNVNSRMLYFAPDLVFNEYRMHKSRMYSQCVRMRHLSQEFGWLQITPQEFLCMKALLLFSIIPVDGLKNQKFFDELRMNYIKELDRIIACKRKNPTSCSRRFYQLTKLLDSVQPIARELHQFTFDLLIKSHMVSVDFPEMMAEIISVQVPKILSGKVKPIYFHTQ
T3 sequence (chain, as listed by the source limits assumed): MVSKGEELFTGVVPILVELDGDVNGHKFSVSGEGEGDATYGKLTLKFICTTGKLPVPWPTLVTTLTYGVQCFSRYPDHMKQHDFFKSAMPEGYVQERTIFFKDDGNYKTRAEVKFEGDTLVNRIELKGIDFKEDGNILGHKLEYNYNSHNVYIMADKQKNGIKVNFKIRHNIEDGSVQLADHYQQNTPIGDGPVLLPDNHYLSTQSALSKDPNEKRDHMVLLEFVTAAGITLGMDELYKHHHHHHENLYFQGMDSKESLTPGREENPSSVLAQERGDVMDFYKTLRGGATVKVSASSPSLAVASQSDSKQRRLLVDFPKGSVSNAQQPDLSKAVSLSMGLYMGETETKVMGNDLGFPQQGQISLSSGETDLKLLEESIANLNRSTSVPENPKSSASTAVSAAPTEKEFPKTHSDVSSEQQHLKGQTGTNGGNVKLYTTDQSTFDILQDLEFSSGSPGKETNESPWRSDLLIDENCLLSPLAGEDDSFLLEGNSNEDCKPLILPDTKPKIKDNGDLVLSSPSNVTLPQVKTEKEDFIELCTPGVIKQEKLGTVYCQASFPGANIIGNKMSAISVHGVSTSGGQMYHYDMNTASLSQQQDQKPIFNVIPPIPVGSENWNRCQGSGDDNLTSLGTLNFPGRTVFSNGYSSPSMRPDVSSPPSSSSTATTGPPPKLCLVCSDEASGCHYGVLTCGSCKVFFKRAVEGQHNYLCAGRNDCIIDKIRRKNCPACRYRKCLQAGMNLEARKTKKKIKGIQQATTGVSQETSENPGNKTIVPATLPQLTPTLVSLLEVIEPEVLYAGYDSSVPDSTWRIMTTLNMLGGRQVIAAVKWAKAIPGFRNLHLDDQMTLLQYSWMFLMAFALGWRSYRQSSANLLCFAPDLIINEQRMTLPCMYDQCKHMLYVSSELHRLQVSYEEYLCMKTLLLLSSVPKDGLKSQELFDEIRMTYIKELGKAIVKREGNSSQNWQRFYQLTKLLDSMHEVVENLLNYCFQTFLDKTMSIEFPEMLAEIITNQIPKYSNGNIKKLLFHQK

B1: CA16383 FIX functionalized Nanobody stripper (MegaBody MbCA10309^YgjK, including C-terminal 6xHis+EPEA tag) (other)
chain: QVQLVESGGGLVKEETQSGLNNYARVVEKGQYDSLEIPAQVAASWESGRDDAAVFGFIDKEQLDKYVANGGKRSDWTVKFAENRSQDGTLLGYSLLQESVDQASYMYSDNHYLAEMATILGKPEEAKRYRQLAQQLADYINTCMFDPTTQFYYDVRIEDKPLANGCAGKPIVERGKGPEGWSPLFNGAATQANADAVVKVMLDPKEFNTFVPLGTAALTNPAFGADIYWRGRVWVDQFWFGLKGMERYGYRDDALKLADTFFRHAKGLTADGPIQENYNPLTGAQQGAPNFSWSAAHLYMLYNDFFRKQASGGGSGGGGSGGGGSGNADNYKNVINRTGAPQYMKDYDYDDHQRFNPFFDLGAWHGHLLPDGPNTMGGFPGVALLTEEYINFMASNFDRLTVWQDGKKVDFTLEAYSIPGALVQKLTAKDVQVEMTLRFATPRTSLLETKITSNKPLDLVWDGELLEKLEAKEGKPLSDKTIAGEYPDYQRKISATRDGLKVTFGKVRATWDLLTSGESEYQVHKSLPVQTEINGNRFTSKAHINGSTTLYTTYSHLLTAQEVSKEQMQIRDILARPAFYLTASQQRWEEYLKKGLTNPDATPEQTRVAVKAIETLNGNWRSPGGAVKFNTVTPSVTGRWFSGNQTWPWDTWKQAFAMAHFNPDIAKENIRAVFSWQIQPGDSVRPQDVGFVPDLIAWNLSPERGGDGGNWNERNTKPSLAAWSVMEVYNVTQDKTWVAEMYPKLVAYHDWWLRNRDHNGNGVPEYGATRDKAHNTESGEMLFTVKKSLRLSCATSGIGFSIYSMGWYRQAPGKERELVASIAGNEDKDYVESVKGRFTISRDYAKNTLYLEMSGLKFEDTAMYYCAAGLRRGVSLTPYYWGQGTQVTVSSHHHHHHEPEA
notes: also called MegaBody CA16383
B1: binds [1].

B2: CA15816 GFP-NbT54A/V55A (C-term. 6xHis + EPEA) (VHH)
VHH: QVQLVESGGGLVQAGGSLRLSCAASGRTFSTAAMGWFRQAPGKERDFVAGIYWAAGSTYYADSAKGRFTISRDNAKNTVYLQMDSLKPEDTAVYYCAARRRGFTLAPTRANEYDYWGQGTQVTVSS
modifications: biotinylated for BLI
notes: T54A/V55A mutant of CA12760; also called Nb CA15816
For B2, the “Half-time ratio (relative to the wt Nb CA12760)” value (GFP protein [2]) was 70 fold, the “KD ratio (relative to the wt Nb CA12760)” value (GFP protein [2]) was 50 fold and the binding result [3] was “binds”. It also gave a Kd (GFP protein [4]) of 2.7 nM, a koff (GFP protein [4]) of 0.00225 s⁻¹ and a kon (GFP protein [4]) of 835000 M⁻¹ s⁻¹. B2: binds [5].

B3: CA11143 FIX Nanobody trapper (including C-terminal 6xHis+EPEA tag) (VHH)
VHH: QVQLVESGGALVQPGGSLRLSCAASGFTFDNYAMNWVRQAPGKGLEWVSGINWNGRNTYYAESVKDRFTISRDNAKNTLYLQMNSLKSEDTAVYYCAKEIITSGGPTGKYDYWGQGTQVTVSS
notes: also called Nb CA11143
B3: binds [6].

B4: CA4375, EPEA-NbSyn2 (C-term. 6xHis) (VHH)
VHH: QVQLQESGGGSVQAGGSLRLSCAASGIDSSSYCMGWFRQRPGKEREGVARINGLGGVKTAYADSVKDRFTISRDNAENTVYLQMNSLKPEDTAIYYCAAKFSPGYCGGSWSNFGYWGQGTQVTVSS
notes: Selected against human alpha-synuclein; also called monovalent CA4375; EPEA-specific Nanobody
B4 showed a Kd [7] of 60 nM.

B5: CA16388 FIX functionalized Nanobody trapper (MegaBody MbCA11143^YgjK, including C-terminal 6xHis+EPEA tag) (other)
chain: QVQLVESGGGLVKEETQSGLNNYARVVEKGQYDSLEIPAQVAASWESGRDDAAVFGFIDKEQLDKYVANGGKRSDWTVKFAENRSQDGTLLGYSLLQESVDQASYMYSDNHYLAEMATILGKPEEAKRYRQLAQQLADYINTCMFDPTTQFYYDVRIEDKPLANGCAGKPIVERGKGPEGWSPLFNGAATQANADAVVKVMLDPKEFNTFVPLGTAALTNPAFGADIYWRGRVWVDQFWFGLKGMERYGYRDDALKLADTFFRHAKGLTADGPIQENYNPLTGAQQGAPNFSWSAAHLYMLYNDFFRKQASGGGSGGGGSGGGGSGNADNYKNVINRTGAPQYMKDYDYDDHQRFNPFFDLGAWHGHLLPDGPNTMGGFPGVALLTEEYINFMASNFDRLTVWQDGKKVDFTLEAYSIPGALVQKLTAKDVQVEMTLRFATPRTSLLETKITSNKPLDLVWDGELLEKLEAKEGKPLSDKTIAGEYPDYQRKISATRDGLKVTFGKVRATWDLLTSGESEYQVHKSLPVQTEINGNRFTSKAHINGSTTLYTTYSHLLTAQEVSKEQMQIRDILARPAFYLTASQQRWEEYLKKGLTNPDATPEQTRVAVKAIETLNGNWRSPGGAVKFNTVTPSVTGRWFSGNQTWPWDTWKQAFAMAHFNPDIAKENIRAVFSWQIQPGDSVRPQDVGFVPDLIAWNLSPERGGDGGNWNERNTKPSLAAWSVMEVYNVTQDKTWVAEMYPKLVAYHDWWLRNRDHNGNGVPEYGATRDKAHNTESGEMLFTVKKSLRLSCAASGFTFDNYAMNWVRQAPGKGLEWVSGINWNGRNTYYAESVKDRFTISRDNAKNTLYLQMNSLKSEDTAVYYCAKEIITSGGPTGKYDYWGQGTQVTVSSHHHHHHEPEA
notes: also called MegaBody CA16388
B5: binds [8].

Reference: patent publication US20240027467A1 (VIB VZW, published 2024)
